Test results published in patent US20040156861A1 (US Dept. of Health and Human Services, published 2004).
Read-outs that look alike come from different tables or passages of the source. Values belong to the molecule of their own block, whether it stands above or below them.

What was measured:
[1] = molecular target: T1, HLA-A*0201 (human); test: T2 cell HLA-A*0201 stabilization, flow cytometry with mAb BB7.2
T1 construct: also called HLA-A2.1; HLA-A2

[2] = molecular target: Melan-A/MART-1 27-35 epitope-analogue AIGIGLTV (SEQ ID NO: 30); test: cell-based or functional assay
[3] = molecular target: gp100 280-288 …; test: cell-based or functional assay
[4] = molecular target: Melan-A/MART-1 27-35 epitope …; test: cell-based or functional assay
[5] = molecular target: gp100 280-288 …; test: cell-based or functional assay; remark: listed apart in the source
[6] = molecular target: gp100 154-162 epitope-analogue …; test: cell-based or functional assay
[7] = molecular target: gp100 154-162 epitope …; test: cell-based or functional assay
[8] = molecular target: T1, HLA-A*0201; test: T2 cell HLA-A*0201 stabilization, flow cytometry with mAb BB7.2; remark: listed apart in the source
Protocol: (§1) Briefly, peptides were diluted from DMSO stocks to various concentrations (final DMSO concentration 0.5%) and were incubated together with 10⁵ T2 cells for 14 hours at 37° C., 5% CO₂ in serum-free Iscoves medium in a volume of 100 ml in the presence of 3 mg/ml human β2-microglobulin (Sigma, St Louis, Mo.). […] The Fluorescence Index is expressed as: (experimental mean fluorescence÷background mean fluorescence)−1.
(§2) ^aBinding of peptides to HLA-A2.1 was analyzed using the processing-defective T2 cell line at the indicated peptide concentrations.

[9] = molecular target: T1, HLA-A*0201; test: as above; remark: listed apart in the source
Protocol: as §1, §2

[10] = molecular target: T1, HLA-A*0201; test: decay of cell-surface HLA-A*0201-peptide complexes at 37 C on emetine-pretreated B-LCL, flow cytometry
Protocol: Measurement of MHC-peptide complex stability was performed. […] The cells were then mild-acid treated and subsequently loaded with 200 mM of peptide for 1 hour at room temperature. Thereafter, the cells were washed twice to remove free peptide and were incubated at 37° C. for 0, 2, 4 and 6 hours.

[11] = molecular target: T1, HLA-A*0201; test: competition with 150 nM FL-labeled reference peptide on mild-acid treated HLA-A*0201+ JY B-LCL at 4 C, flow cytometry
Description: Subsequently, the cells were washed, fixed with paraformaldehyde and analyzed by flow cytometry. […] The binding capacity of competitor peptides is expressed as the concentration needed to inhibit 50% of binding of the FL-labeled reference peptide (IC₅₀).

- Fluorescence Index (HLA-A*0201 stabilization), 25 µM peptide [1]: 1.29
- Fluorescence Index (HLA-A*0201 stabilization), 50 µM peptide [1]: 1.58
Molecule: Melan-A/MART-1 27-35 epitope-analogue AIGIGLTV (SEQ ID NO: 30) (peptide)

- % specific lysis by TIL 1235 of T2 target cells preincubated with 1 µM peptide, E:T 20:1 (% specific lysis) [2]: 27
- % specific lysis by TIL 1235 of T2 target cells preincubated with 1 µM peptide, E:T 20:1 (% specific lysis) [3]: -1
- % specific lysis by TIL 1235 of T2 target cells preincubated with 1 µM peptide, E:T 20:1 (% specific lysis) [4]: 40
- % specific lysis by TIL 1235 of T2 target cells preincubated with 1 µM peptide, E:T 20:1 (% specific lysis) [5]: -3
Molecule: T-cell receptor of Melan-A/MART-1 27-35-reactive TIL 1235 lymphocytes (TCR)

- % specific lysis by TIL 1200 of T2 target cells preincubated with 1 µM peptide, E:T 20:1 (% specific lysis) [5]: 3
- % specific lysis by TIL 1200 of T2 target cells preincubated with 1 µM peptide, E:T 20:1 (% specific lysis) [7]: 67
Molecule: T-cell receptor of gp100-reactive TIL 1200 lymphocytes (TCR)
- peptide titration, sensitization of T2 target cells for lysis by TIL 1200 (FIG. 1) (fold lower concentration than wild type) [6]: 10
- peptide titration, sensitization of T2 target cells for lysis by TIL 1200 (FIG. 2) (fold lower concentration than wild type) [6]: 10

- Fluorescence Index (HLA-A*0201 stabilization), 25 µM peptide [8]: 1.42
- Fluorescence Index (HLA-A*0201 stabilization), 50 µM peptide [8]: 1.94
B1: gp100 154-162 epitope-analogue ATWGQYWQV (peptide)
peptide: ATWGQYWQV
notes: synthetic; alanine at position 1

- Fluorescence Index (HLA-A*0201 stabilization), 25 µM peptide [9]: 1.28
- Fluorescence Index (HLA-A*0201 stabilization), 50 µM peptide [9]: 1.73
B2: gp100 154-162 epitope-analogue KMWGQYWQV (peptide)
peptide: KMWGQYWQV
notes: synthetic; N-terminal anchor (position 2) replaced by M

- Fluorescence Index (HLA-A*0201 stabilization), 25 µM peptide [9]: 1.55
- Fluorescence Index (HLA-A*0201 stabilization), 50 µM peptide [9]: 2.19
- Stability (DT 50%) [10]: > 4 h
- IC50 [11]: 400 nM
B3: gp100 154-162 epitope-analogue KLWGQYWQV (peptide)
peptide: KLWGQYWQV
notes: synthetic; N-terminal anchor (position 2) replaced by L

- Fluorescence Index (HLA-A*0201 stabilization), 25 µM peptide [9]: 1.57
- Fluorescence Index (HLA-A*0201 stabilization), 50 µM peptide [9]: 2.13
- Stability (DT 50%) [10]: > 4 h
- IC50 [11]: 800 nM
B4: gp100 154-162 epitope-analogue KVWGQYWQV (peptide)
peptide: KVWGQYWQV
notes: synthetic; N-terminal anchor (position 2) replaced by V

- Fluorescence Index (HLA-A*0201 stabilization), 25 µM peptide [9]: 1.43
- Fluorescence Index (HLA-A*0201 stabilization), 50 µM peptide [9]: 2
- Stability (DT 50%) [10]: > 4 h
- IC50 [11]: 600 nM
B5: gp100 154-162 epitope-analogue KIWGQYWQV (peptide)
peptide: KIWGQYWQV
notes: synthetic; N-terminal anchor (position 2) replaced by I

- Fluorescence Index (HLA-A*0201 stabilization), 25 µM peptide [8]: 1.15
- Fluorescence Index (HLA-A*0201 stabilization), 50 µM peptide [8]: 1.42
B6: gp100 154-162 epitope-analogue KTWGQAWQV (peptide)
peptide: KTWGQAWQV
notes: synthetic; alanine at position 6

- Fluorescence Index (HLA-A*0201 stabilization), 25 µM peptide [8]: 1.25
- Fluorescence Index (HLA-A*0201 stabilization), 50 µM peptide [8]: 1.59
B7: gp100 154-162 epitope-analogue KTWGAYWQV (peptide)
peptide: KTWGAYWQV
notes: synthetic; alanine at position 5

- Fluorescence Index (HLA-A*0201 stabilization), 25 µM peptide [8]: 1.2
- Fluorescence Index (HLA-A*0201 stabilization), 50 µM peptide [8]: 1.57
B8: gp100 154-162 epitope-analogue KAWGQYWQV (peptide)
peptide: KAWGQYWQV
notes: synthetic; alanine at position 2

- Fluorescence Index (HLA-A*0201 stabilization), 25 µM peptide [8]: 1.14
- Fluorescence Index (HLA-A*0201 stabilization), 50 µM peptide [8]: 1.31
B9: gp100 154-162 epitope-analogue KTWGQYAQV (peptide)
peptide: KTWGQYAQV
notes: synthetic; alanine at position 7

- Stability (DT 50%) [10]: > 4 h
- IC50 [11]: 500 nM
- Fluorescence Index (HLA-A*0201 stabilization), 25 µM peptide [8]: 1.35
- Fluorescence Index (HLA-A*0201 stabilization), 50 µM peptide [8]: 1.72
B10: gp100 154-162 epitope-analogue KTWGQYWAV (peptide)
peptide: KTWGQYWAV
notes: synthetic; alanine at position 8

- Fluorescence Index (HLA-A*0201 stabilization), 25 µM peptide [8]: 1.02
- Fluorescence Index (HLA-A*0201 stabilization), 50 µM peptide [8]: 1.08
B11: gp100 154-162 epitope-analogue KTWGQYWQA (peptide)
peptide: KTWGQYWQA
notes: synthetic; alanine at position 9

- Fluorescence Index (HLA-A*0201 stabilization), 25 µM peptide [8]: 1.02
- Fluorescence Index (HLA-A*0201 stabilization), 50 µM peptide [8]: 1.17
B12: gp100 154-162 epitope-analogue KTAGQYWQV (peptide)
peptide: KTAGQYWQV
notes: synthetic; alanine at position 3
